Measured values: patent US20120329067A1

What was measured:
[1] = target: ZFN with wild-type FokI cleavage domain carrying R487D (DD architecture); test: cell-based or functional assay
[2] = target: ZFN with wild-type FokI cleavage domain carrying the DAMQS interface (DS architecture); test: cell-based or functional assay

B1: ZFN with wild-type FokI cleavage domain carrying D483R (RR architecture) (enzyme, part only; not given: zinc finger domain and linker, part only)
chain, part: QLVKSELEEKKSELRHKLKYVPHEYIELIEIARNSTQDRILEMKVMEFFMKVYGYRGKHLGGSRKPDGAIYTVGSPIDYGVIVDTKAYSGGYNLPIGQAREMQRYVEENQTRNKHINPNEWWKVYPSSVTEFKFLFVSGHFKGNYKAQLTRLNHITNCNGAVLSVEELLIGGEMIKAGTLTLEEVRRKFNNGEINF
- stimulation of mutagenesis in an EGFP reporter cell line (P3/E4 cleavage site), relative to wt (fraction of wt activity) [1]: 0.167
- stimulation of mutagenesis in an EGFP reporter cell line (P3/E4 cleavage site), relative to wt (fraction of wt activity) [2]: 0.33
